Biological target: FGFR3 of chick prechordal mesoderm cells (chick (endogenous in prechordal mesoderm cells)) (UniProt P18460)
Experiment: immunostaining of cells or tissue; isolated st6 chick prechordal mesoderm cells cultured until st8, incubated with proNodal-FLAG, detected with anti-FLAG; non-targeted cells

Chain of UniProt P18460 (P18460 20-806): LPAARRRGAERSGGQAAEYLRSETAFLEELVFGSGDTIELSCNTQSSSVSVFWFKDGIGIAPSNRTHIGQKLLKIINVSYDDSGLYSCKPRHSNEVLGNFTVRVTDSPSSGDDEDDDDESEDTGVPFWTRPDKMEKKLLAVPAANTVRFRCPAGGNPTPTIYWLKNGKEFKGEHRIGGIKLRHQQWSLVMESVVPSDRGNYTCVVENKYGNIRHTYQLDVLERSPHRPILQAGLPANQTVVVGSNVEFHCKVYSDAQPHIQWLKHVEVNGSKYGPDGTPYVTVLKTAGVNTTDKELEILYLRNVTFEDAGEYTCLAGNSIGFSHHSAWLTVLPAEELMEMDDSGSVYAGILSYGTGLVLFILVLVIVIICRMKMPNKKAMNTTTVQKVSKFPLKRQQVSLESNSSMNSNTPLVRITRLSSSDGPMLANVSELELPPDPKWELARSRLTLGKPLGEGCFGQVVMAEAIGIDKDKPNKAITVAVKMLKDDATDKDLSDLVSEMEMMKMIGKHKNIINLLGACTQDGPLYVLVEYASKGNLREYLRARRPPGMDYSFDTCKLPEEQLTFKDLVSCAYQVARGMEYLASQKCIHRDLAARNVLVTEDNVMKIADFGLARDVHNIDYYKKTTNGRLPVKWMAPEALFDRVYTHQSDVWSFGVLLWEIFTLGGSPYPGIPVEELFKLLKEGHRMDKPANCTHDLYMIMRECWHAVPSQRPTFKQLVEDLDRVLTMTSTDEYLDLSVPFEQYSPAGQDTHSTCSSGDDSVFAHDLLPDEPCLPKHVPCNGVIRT

percent of DAPI+ nuclei closely associated with anti-FLAG: 79%
Substance: recombinant proNodal (recombinant Nodal cleavage mutant resistant to proprotein convertases), FLAG-tagged (from UniProt P43021 27-354) (ligand)

Source: publication PMC4712875
